Source: article PMC9547003

Biological target: bacteriophage T7 endonuclease I (C113S, S29C; called wild type in the paper), Cy3-labelled (bacteriophage T7) (UniProt P00641)
Experiment: two-step photobleaching of single fluorescent molecules (confocal microscopy with optical tweezers); Cy3-labelled endonuclease I (one dye on each monomer) diffusing on force-stretched dsDNA held between optically trapped beads; 1 nM protein, 25 mM Tris-HCl pH 7.5, 50 mM NaCl, 0.1% BSA, 1 mM CaCl2 or MgCl2

Substance “bacteriophage T7 endonuclease I (C113S, S29C; called wild type in the paper), Cy3-labelled (from UniProt P00641 1-149) (enzyme)” has a stoichiometry N of 2.
